Measurements from PMC3597662.

Molecular target: T1, Cbp2Hb wild type (Hyperthermus butylicus, UniProt A2BLH2 1-103)
T1 sequence: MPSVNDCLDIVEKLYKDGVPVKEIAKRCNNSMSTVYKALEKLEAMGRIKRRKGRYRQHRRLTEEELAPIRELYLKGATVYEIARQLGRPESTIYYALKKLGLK
Assay: NMR

B1: CRISPR-1rHb 25 bp single repeat (dsDNA)
DNA 1: CTTGCAATTCTCTTTTGAGTTGTTC
DNA 2: GAACAACTCAAAAGAGAATTGCAAG
- binding result: binds
